No end group written: not given here.
B1: ADP149 (protein)
chain: MAWKHVPFLVMISLLSLSPNHLFLAQLIPDPEDVERGNDHGTPIPTSDNDDNSLGYTGSRLRQEDFPPRIVEHPSDLIVSKGEPATLNCKAEGRPTPTIEWYKGGERVETDKDDPRSHRMLLPSGSLFFLRIVHGRKSRPDEGVYVCVARNYLGEAVSHNASLEVAILRDDFRQNPSDVMVAVGEPAVMECQPPRGHPEPTISWKKDGSPLDDKDERITIRGGKLMITYTRKSDAGKYVCVGTNMVGERESEVAELTVLERPSFVKRPSNLAVTVDDSAEFKCEARGDPVPTVRWRKDDGELPKSRYEIRDDHTLKIRKVTAGDMGSYTCVAENMVGKAEASATLTVQEPPHFVVKPRDQVVALGRTVTFQCEATGNPQPAIFWRREGSQNLLFSYQPPQSSSRFSVSQTGDLTITNVQRSDVGYYICQTLNVAGSIITKAYLEVTDVIADRPPPVIRQGPVNQTVAVDGTFVLSCVATGSPVPTILWRKDGVLVSTQDSRIKQLENGVLQIRYAKLGDTGRYTCIASTPSGEATWSAYIEVQEFGVPVQPPRPTDPNLIPSAPSKPEVTDVSRNTVTLSWQPNLNSGATPTSYIIEAFSHASGSSWQTVAENVKTETSAIKGLKPNAIYLFLVRAANAYGISDPSQISDPVKTQDVLPTSQGVDHKQVQRELGNAVLHLHNPTVLSSSSIEVHWTVDQQSQYIQGYKILYRPSGANHGESDWLVFEVRTPAKNSVVIPDLRKGVNYEIKARPFFNEFQGADSEIKFAKTLEEAPSAPPQGVTVSKNDGNGTAILVSWQPPPEDTQNGMVQEYKVWCLGNETRYHINKTVDGSTFSVVIPFLVPGIRYSVEVAASTGAGSGVKSEPQFIQLDAHGNPVSPEDQVSLAQQISDVVKQP
modifications: bait human Fc-tagged dimer
B2: ADP388 (protein)
chain: SEGHGGAQLQAELRSLKEAFSNFSSSTLTEVQAISTHGGSVGDKITSLGAKLEKQQQDLKADHDALLFHLKHFPVDLRFVACQMELLHSNGSQRTCCPVNWVEHQGSCYWFSHSGKAWAEAEKYCQLENAHLVVINSWEEQKFIVQHTNPFNTWIGLTDSDGSWKWVDGTDYRHNYKNWAVTQPDNWHGHELGGSEDCVEVQPDGRWNDDFCLQVYRWVCEKRRNATGEVA
modifications: bait human Fc-tagged dimer
B3: ADP281 (protein)
chain: SIYEMVVDVLFLCFAIDTKYNDGSPGREFYMDKVLMEFVENSRKAMKEAGKGGVADSRELKPMASG
modifications: also: human Fc-tagged dimer
B4: ADP137 (protein)
chain: MAVVGNPRSWSCQWLPILILLLGTGHGPGVEGVTHYKAGDPVILYVNKVGPYHNPQETYHYYQLPVCCPEKIRHKSLSLGEVLDGDRMAESLYEIRFRENVEKRILCHMQLSSAQVEQLRQAIEELYYFEFVVDDLPIRGFVGYMEESGFLPHSHKIGLWTHLDFHLEFHGDRIIFANVSVRDVKPHSLDGLRPDEFLGLTHTYSVRWSETSVERRSDRRRGDDGGFFPRTLEIHWLS
modifications: bait human Fc-tagged dimer
B5: ADP264 (protein)
chain: GRFSLFGLGGEPGGGAAGPAAAADGGTVDLREMLAVSVLAAVRGGDEVRRVRESNVLHEKSKGKTREGAEDKMTSGDVLSNRKMFYLLKTAFPSVQINTEEHVDAADQEVILWDHKIPEDILKEVTTPKEVPAESVTVWIDPLDATQEYTEDLRKYVTTMVCVAVNGKPMLGVIHKPFSEYTAWAMVDGGSNVKARSSYNEKTPRIVVSRSHSGMVKQVALQTFGNQTTIIPAGGAGYKVLALLDVPDKSQEKADLYIHVTYIKKWDICAGNAILKALGGHMTTLSGEEISYTGSDGIEGGLLASIRMNHQALVRKLPDLEKTGHK
modifications: bait human Fc-tagged dimer
B6: ADP345 (protein)
chain: MALLAGGLSRGLGSHPAAAGRDAVVFVWLLLSTWCTAPARAIQVTVSNPYHVVILFQPVTLPCTYQMTSTPTQPIVIWKYKSFCRDRIADAFSPASVDNQLNAQLAAGNPGYNPYVECQDSVRTVRVVATKQGNAVTLGDYYQGRRITITGNADLTFDQTAWGDSGVYYCSVVSAQDLQGNNEAYAELIVLGRTSGVAELLPGFQAGP
modifications: bait human Fc-tagged dimer
B7: ADP304 (protein)
chain: MASGWWLWPLVAVCTADFFRDEAERIMRDSPVIDGHNDLPWQLLDMFNNRLQDERANLTTLAGTHTNIPKLRAGFVGGQFWSVYTPCDTQNKDAVRRTLEQMDVVHRMCRMYPETFLYVTSSAGIRQAFREGKVASLIGVEGGHSIDSSLGVLRALYQLGMRYLTLTHSCNTPWADNWLVDTGDSEPQSQGLSPFGQRVVKELNRLGVLIDLAHVSVATMKATLQLSRAPVIFSHSSAYSVCASRRNVPDDVLRLVKQTDSLVMVNFYNNYISCTNKANLSQVADHLDHIKEVAGARAVGFGGDFDGVPRVPEGLEDVSKYPDLIAELLRRNWTEAEVKGALADNLLRVFEAVEQASNLTQAPEEEPIPLDQLGGSCRTHYGYSS
modifications: bait human Fc-tagged dimer
B8: ADP375 (protein)
chain: SSKYAPDENCPDQNPRLRNWDPGQDSAKQVVIKEGDMLRLTSDATVHSIVIQDGGLLVFGDNKDGSRNITLRTHYILIQDGGALHIGAEKCRYKSKATITLYGKSDEGESMPTFGKKFIGVEAGGTLELHGARKASWTLLARTLNSSGLPFGSYTFEKDFSRGLNVRVIDQDTAKILESERFDTHEYRNESRRLQEFLRFQDPGRIVAIAVGDSAAKSLLQGTIQMIQERLGSELIQGLGYRQAWALVGVIDGGSTSCNESVRNYENHSSGGKALAQREFYTVDGQKFSVTAYSEWIEGVSLSGFRVEVVDGVKLNLLDDVSSWKPGDQIVVASTDYSMYQAEEFTLLPCSECSHFQVKVKETPQFLHMGEIIDGVDMRAEVGILTRNIVIQGEVEDSCYAENQCQFFDYDTFGGHIMIMKNFTSVHLSYVELKHMGQQQMGRYPVHFHLCGDVDYKGGYRHATFVDGLSIHHSFSRCITVHGTNGLLIKDTIGFDTLGHCFFLEDGIEQRNTLFHNLGLLTKPGTLLPTDRNNSMCTTMRDKVFGNYIPVPATDCMAVSTFWIAHPNNNLINNAAAGSQDAGIWYLFHKEPTGESSGLQLLAKPELTPLGIFYNNRVHSNFKAGLFIDKGVKTTNSSAADPREYLCLDNSARFRPHQDANPEKPRVAALIDRLIAFKNNDNGAWVRGGDIIVQNSAFADNGIGLTFASDGSFPSDEGSSQEVSESLFVGESRNYGFQGGQNKYVGTGGIDQKPRTLPRNRTFPIRGFQIYDGPIHLTRSTFKKYVPTPDRYSSAIGFLMKNSWQITPRNNISLVKFGPHVSLNVFFGKPGPWFEDCEMDGDKNSIFHDIDGSVTGYKDAYVGRMDNYLIRHPSCVNVSKWNAVICSGTYAQVYVQTWSTQNLSMTITRDEYPSNPMVLRGINQKAAFPQYQPVVMLEKGYTIHWNGPAPRTTFLYLVNFNKNDWIRVGLCYPSNTSFQVTFGYLQRQNGSLSKIEEYEPVHSLEELQRKQSERKFYFDSSTGLLFLYLKAKSHRHGHSYCSSQGCERVKIQAATDSKDISNCMAKAYPQYYRKPSVVKRMPAMLTGLCQGCGTRQVVFTSDPHKSYLPVQFQSPDKAETQRGDPSVISVNGTDFTFRSAGVLLLVVDPCSVPFRLTEKTVFPLADVSRIEEYLKTGIPPRSIVLLSTRGEIKQLNISHLLVPLGLAKPAHLYDKGSTIFLGFSGNFKPSWTKLFTSPAGQGLGVLEQFIPLQLDEYGCPRATTVRRRDLELLKQASKAH
modifications: bait human Fc-tagged dimer
B9: ADP282 (protein)
chain: STWVTSEAYSSPSIVLSARGGDGSRIIFDDFREAYYWLRHNTPEDAKVMSWWDYGYQITAMANRTILVDNNTWNNTHISRVGQAMASTEEKAYEIMRELDVSYVLVIFGGLTGYSSDDINKFLWMVRIGGSTDTGKHIKENDYYTPTGEFRVDREGSPVLLNCLMYKMCYYRFGQVYTEAKRPPGFDRVRNAEIGNKDFELDVLEEAYTTEHWLVRIYKVKDLDNRGLSRT
modifications: bait human Fc-tagged dimer
B10: ADP344 (protein)
chain: MAWSFFRVVAMLFIFLVVVEVNSEFRIQVRDYNTKNGTIKWHSIRRQKREWIKFAAACREGEDNSKRNPIAKIHSDCAANQQVTYRISGVGIDQPPYGIFVINQKTGEINITSIVDREVTPFFIIYCRALNSMGQDLERPLELRVRVLDINDNPPVFSMATFAGQIEENSNANTLVMILNATDADEPNNLNSKIAFKIIRQEPSDSPMFIINRNTGEIRTMNNFLDREQYGQYALAVRGSDRDGGADGMSAECECNIKILDVNDNIPYMEQSSYTIEIQENTLNSNLLEIRVIDLDEEFSANWMAVIFFISGNEGNWFEIEMNERTNVGILKVVKPLDYEAMQSLQLSIGVRNKAEFHHSIMSQYKLKASAISVTVLNVIEGPVFRPGSKTYVVTGNMGSNDKVGDFVATDLDTGRPSTTVRYVMGNNPADLLAVDSRTGKLTLKNKVTKEQYNMLGGKYQGTILSIDDNLQRTCTGTININIQSFGNDDRTNTEPNTKITTNTGRQESTSSTNYDTSTTSTDSSQVYSSEPGNGAKDLLSDNVHFGPAG
modifications: bait human Fc-tagged dimer
B11: ADP351 (protein)
chain: MARRRGSPGMGVHVGAALGALWFCLTGALEVQVPEDPVVALVGTDATLCCSFSPEPGFSLAQLNLIWQLTDTKQLVHSFAEGQDQGSAYANRTALFPDLLAQGNASLRLQRVRVADEGSFTCFVSIRDFGSAAVSLQVAAPYSKPSMTLEPNKDLRPGDTVTITCSSYQGYPEAEVFWQDGQGVPLTGNVTTSQMANEQGLFDVHSILRVVLGANGTYSCLVRNPVLQQDAHSSVTITPQRSPTGAVEVQVPEDPVVALVGTDATLRCSFSPEPGFSLAQLNLIWQLTDTKQLVHSFTEGRDQGSAYANRTALFPDLLAQGNASLRLQRVRVADEGSFTCFVSIRDFGSAAVSLQVAAPYSKPSMTLEPNKDLRPGDTVTITCSSYRGYPEAEVFWQDGQGVPLTGNVTTSQMANEQGLFDVHSVLRVVLGANGTYSCLVRNPVLQQDAHGSVTITGQPMTFPP
modifications: bait human Fc-tagged dimer

The binders below were run against Circumsporozoite protein (CSP) (Plasmodium falciparum (isolate 3D7), UniProt Q7K740) (assay: AVEXIS screen signal:noise (double-corrected)).
Circumsporozoite protein (CSP), sequence (Q7K740 19-374): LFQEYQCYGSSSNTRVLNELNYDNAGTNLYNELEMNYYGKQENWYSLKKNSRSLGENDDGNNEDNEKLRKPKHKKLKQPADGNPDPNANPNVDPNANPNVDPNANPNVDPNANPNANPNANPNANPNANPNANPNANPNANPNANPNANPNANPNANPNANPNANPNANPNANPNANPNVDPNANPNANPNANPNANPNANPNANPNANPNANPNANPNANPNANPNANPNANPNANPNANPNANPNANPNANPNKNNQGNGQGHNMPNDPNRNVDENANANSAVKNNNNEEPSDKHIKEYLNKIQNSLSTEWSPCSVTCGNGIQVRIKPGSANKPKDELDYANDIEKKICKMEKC
For B1, the binding score was 0.924.
B2 gave a binding score of 0.484.
B3 showed a binding score of 0.848.
B4 showed a binding score of 0.831.
Work on MTGLSMDGGGSPKGDVDPFYYDYETVRN (also: human Fc-tagged dimer) [ADP286] yielded a binding score of 1.14.
Work on B5 yielded a binding score of 0.964.
Work on B6 yielded a binding score of 0.842.
B7 gave a binding score of 0.718.
Work on B8 yielded a binding score of 0.71.
Binder B9 has a binding score of 0.691.
B10 showed a binding score of 1.01.
Binder B11 has a binding score of 1.23.
